Measurements taken from paper PMC4914113, “Another look at the mechanism involving trimeric dUTPases in Staphylococcus aureus pathogenicity island induction involves novel players in the party” (Nucleic Acids Research, 2016).

What was measured:
[1] = molecular target: Dut80α D81A D110C S168C (Staphylococcus aureus phage 80α); test: BLI; as a1 but non-reducing buffer (400 mM NaCl, 75 mM HEPES pH 7.5, 5 mM MgCl2) with 0.5 mM dUPNPP; 1:1 model
[2] = molecular target: Dut80α D81A D110C S168C (Staphylococcus aureus phage 80α); test: BLI; as a1 but non-reducing buffer (400 mM NaCl, 75 mM HEPES pH 7.5, 5 mM MgCl2); no nucleotide; 1:1 model
[3] = molecular target: Dut80α^WT, wild-type dUTPase of phage 80α (Staphylococcus aureus phage 80α); test: BLI; as a1, buffer STL supplemented with 0.5 mM dUPNPP (baselines and dissociation without nucleotide); 1:1 model
[4] = molecular target: Dutϕ11^ΔV-ΔVI (Staphylococcus aureus phage ϕ11); test: as above
[5] = molecular target: Dut80α^D81A (Staphylococcus aureus phage 80α); test: as above
[6] = molecular target: Dut80α^ΔVI, Dut80α lacking motif VI (Staphylococcus aureus phage 80α); test: as above
[7] = molecular target: Dutϕ11^ΔVI, Dutϕ11 lacking motif VI (Staphylococcus aureus phage ϕ11); test: as above
[8] = molecular target: Dut80α^G164S (Staphylococcus aureus phage 80α); test: as above
[9] = molecular target: Dut80α^Y84I (Staphylococcus aureus phage 80α); test: as above
[10] = molecular target: Dut80α^F165A (Staphylococcus aureus phage 80α); test: as above
[11] = molecular target: Dutϕ11^ΔV, Dutϕ11 motif V deletion mutant (Staphylococcus aureus phage ϕ11); test: as above
[12] = molecular target: Dut80α D81A D110C S168C (Staphylococcus aureus phage 80α); test: as above
[13] = molecular target: Dutϕ11^WT, wild-type dUTPase of phage ϕ11 (Staphylococcus aureus phage ϕ11); test: as above
[14] = molecular target: Dutϕ11^(ΔVI F164A) (Staphylococcus aureus phage ϕ11); test: as above
[15] = molecular target: Dut80α^ΔV, Dut80α motif V deletion mutant (Staphylococcus aureus phage 80α); test: as above
[16] = molecular target: Dut80α^G164S (Staphylococcus aureus phage 80α); test: BLI; BLItz; His-tagged Dut immobilised at 1 μM on Ni-NTA biosensors, Stl in solution (at least five dilutions, 4 to 0.062 μM); buffer STL (400 mM NaCl, 75 mM HEPES pH 7.5, 5 mM MgCl2, 2 mM DTT); no nucleotide; 1:1 model
[17] = molecular target: Dut80α^F165A (Staphylococcus aureus phage 80α); test: as above
[18] = molecular target: Dut80α D81A D110C S168C (Staphylococcus aureus phage 80α); test: as above
[19] = molecular target: Dutϕ11^WT, wild-type dUTPase of phage ϕ11 (Staphylococcus aureus phage ϕ11); test: as above
[20] = molecular target: Dutϕ11^(ΔVI F164A) (Staphylococcus aureus phage ϕ11); test: as above

In the case of “Stl repressor from SaPIbov1 (natural protein)”, the Kd [1] is reported as 19.3 nM, the koff [1] is reported as 0.0011 s⁻¹ and the kon [1] is reported as 57000 M⁻¹ s⁻¹. For the same substance, the Kd [2] was 6 nM, the koff [2] was 0.00085 s⁻¹ and the kon [2] was 140000 M⁻¹ s⁻¹. It also gave a Kd [3] of 466 nM, a koff [3] of 0.0014 s⁻¹ and a kon [3] of 3000 M⁻¹ s⁻¹. It also gave a Kd [4] of 200 nM, a koff [4] of 0.0019 s⁻¹ and a kon [4] of 9500 M⁻¹ s⁻¹. It also gave a Kd [5] greater than 1000 nM, a Kd [6] greater than 1000 nM and a Kd [7] of 12.7 nM. It also gave a koff [7] of 0.00014 s⁻¹, a kon [7] of 11000 M⁻¹ s⁻¹ and a Kd [8] greater than 1000 nM. It also gave a Kd [9] greater than 1000 nM, a Kd [10] greater than 1000 nM and a Kd [11] of 3.84 nM. For the same substance, the koff [11] was 5e-05 s⁻¹, the kon [11] was 13000 M⁻¹ s⁻¹ and the Kd [12] was 192 nM. For the same substance, the koff [12] was 0.005 s⁻¹, the kon [12] was 26000 M⁻¹ s⁻¹ and the Kd [13] was 300 nM. The koff [13] was 0.0006 s⁻¹, the kon [13] was 2000 M⁻¹ s⁻¹ and the Kd [14] was 378 nM. For the same substance, the koff [14] was 0.0031 s⁻¹, the kon [14] was 8200 M⁻¹ s⁻¹ and the Kd [15] was 525 nM. The koff [15] was 0.0042 s⁻¹, the kon [15] was 8000 M⁻¹ s⁻¹ and the Kd [16] was 156 nM. It also gave a koff [16] of 0.0047 s⁻¹, a kon [16] of 30000 M⁻¹ s⁻¹ and a Kd [17] of 581 nM. The koff [17] was 0.0157 s⁻¹, the kon [17] was 27000 M⁻¹ s⁻¹ and the Kd [18] was 58.3 nM. It also gave a koff [18] of 0.0014 s⁻¹, a kon [18] of 24000 M⁻¹ s⁻¹ and a Kd [19] of 1.84 nM. For the same substance, the koff [19] was 9.2e-05 s⁻¹, the kon [19] was 50000 M⁻¹ s⁻¹ and the Kd [20] was 131 nM. For the same substance, the koff [20] was 0.0021 s⁻¹ and the kon [20] was 16000 M⁻¹ s⁻¹.
